Columns and labels:
Format in all cases: biochemical
FXa [1] = molecular target: T1, FXa (Homo sapiens, UniProt P00742); test: Unaccelerated ZPI–FXa reactions: kinetics and stoichiometry of inhibition; details: for ka,app: absence of PZ, 2.5 mM CaCl2, pH 7.4, 25 °C
T1 construct: purchased Enzyme Research Laboratories
Description: (§1) Apparent second-order rate constants for unaccelerated and H50-accelerated ZPI–FXa reactions were measured in the absence and presence of the optimal H50 concentration under pseudo–first-order conditions by analyzing full ZPI–FXa reaction progress curves over the ZPI concentration range of 10 to 900 nM with ∼0.5 nM FXa. Full reaction progress curves were also measured for ZPI–FXa reactions in the presence of PZ equimolar with ZPI, 25 μM lipid, and 5 mM CaCl2, as a function of the ZPI concentration in the range of 10 to 40 nM. Identical reaction mixtures were quenched at varying reaction times with substrate, and the time course of protease inactivation was measured from the decrease in initial rates of substrate hydrolysis. The first-order rate of decrease in protease activity with time was computer fit by a single exponential decay function with a nonzero end point and kobs obtained from the fitted exponential decay constant. Apparent second-order association rate constants (ka,app) were obtained from the slopes of linear plots of kobs versus the ZPI concentration according to the equation, kobs=kd+ka,app × [ZPI]0
(§2) In which kd represents the rate constant for ZPI–FXa complex dissociation and [ZPI]o is the total ZPI concentration. kd was fixed at the experimentally determined value of 10^−4 s^−1 for WT and ZPI mutants as described ([18]).
(§3) Fixed concentrations of FXa (50–100 nM FXa) were reacted with increasing concentrations of ZPI, ranging from a approximately threefold to sevenfold molar excess, in the absence of cofactors or in the presence of either 1 μM H50 or PZ equimolar with ZPI, 25 μM lipid, and 5 mM CaCl2, in kinetics buffer at 25 °C in reaction volumes of 50 μl. After allowing sufficient time to reach a reaction end point, based on measured second-order associate rate constants (∼5–30 min), remaining proteolytic activity was measured by reacting an aliquot (5–20 μl) of the reaction mixtures with 1 ml of 100 μM Spectrozyme fXa (American Diagnostica) containing 50 μg/ml Polybrene and 5 mM EDTA and monitoring the rate of absorbance change at 405 nm. The apparent SI was determined from the fitted abscissa intercept of a linear plot of residual protease activity against the molar ratio of inhibitor to protease ([18]). Because the ZPI–PZ complex dissociates to a small extent over the reaction time, apparent SIs depend on the time of incubation. To correct for such complex dissociation, apparent SIs were multiplied by the factor, exp (−kd × t), where kd is the measured complex dissociation rate constant of 10^−4 s^−1 and t the fixed reaction time. Simulations verified the validity of this correction for small extents of dissociation. Reported SIs are average values of at least two independent measurements at different reaction times.

FXa [2] = molecular target: T1, FXa; test: PZ-accelerated ZPI–FXa reactions: kinetics and stoichiometry of inhibition; details: for SI / ka,app × SI / ka,app × SI relative to WT: PZ-accelerated; for ka,app: equimolar PZ, 25 μM phospholipid, 5 mM CaCl2, pH 7.4, 25 °C; for PZ enhancement: ratio of PZ-accelerated to unaccelerated ka,app × SI
Description: as §1, §2, §3

FXa [3] = molecular target: T1, FXa; test: H50 heparin-accelerated ZPI–FXa reactions: kinetics and stoichiometry of inhibition; details: for SI / ka,app × SI / ka,app × SI relative to WT: 1 μM H50; for ka,app: 1 μM H50, 2.5 mM CaCl2, pH 7.4, 25 °C; for H50 rate enhancement: ratio of heparin-accelerated to unaccelerated ka,app × SI
Description: Heparin accelerating effects on the kinetics of ZPI–FXa reactions were evaluated as a function of heparin concentration under pseudo–first-order conditions (i.e., with a large molar excess of inhibitor over protease) by incubating reaction mixtures of 100 μl containing 70 nM ZPI and ∼0.5 nM FXa in the absence or presence of varying levels of H50 ranging from 10^−9 to 10^−4 M in 20 mM Tris buffer (pH 7.4), 0.1 M NaCl, 0.1% PEG 8000, 0.1 mg/ml BSA, and 2.5 mM CaCl2 at 25 °C for reaction times of 2 to 5 min. Reactions were quenched by adding 1 ml of 50 μM Pefafluor FXa substrate (Centerchem, Inc) containing 50 μg/ml polybrene and 5 mM EDTA. The initial linear rate of substrate hydrolysis was monitored at an excitation wavelength of 380 nm and an emission wavelength of 440 nm. The observed pseudo–first-order rate constant for reactions (kobs) was calculated from the equation, kobs=In([vo-v∞]/[vt-v∞])/t
where vt and v∞ are the initial velocities of protease hydrolysis of the substrate after reaction with ZPI for the fixed reaction time and after reaching the reaction end point, respectively, vo is the velocity measured in control reactions without ZPI, and t is the fixed reaction time. The dependence of kobs on heparin concentration was computer fit by nonlinear least squares analysis by the ternary complex bridging model equation ([10]).
as §1, §2
as §3, with “Simulations verified the validity of this correction for small extents of dissociation. Reported SIs are average values of at least two independent measurements at different reaction times.” left out

T1 sequence (P00742 235-488 limits assumed): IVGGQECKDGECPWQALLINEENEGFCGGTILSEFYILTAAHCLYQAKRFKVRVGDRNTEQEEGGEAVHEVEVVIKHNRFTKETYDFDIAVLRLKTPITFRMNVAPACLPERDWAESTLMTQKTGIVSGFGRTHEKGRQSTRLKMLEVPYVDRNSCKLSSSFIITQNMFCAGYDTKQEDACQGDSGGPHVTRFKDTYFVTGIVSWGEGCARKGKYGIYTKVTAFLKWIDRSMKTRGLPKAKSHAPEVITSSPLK
T1 sequence (P00742 41-179 limits assumed): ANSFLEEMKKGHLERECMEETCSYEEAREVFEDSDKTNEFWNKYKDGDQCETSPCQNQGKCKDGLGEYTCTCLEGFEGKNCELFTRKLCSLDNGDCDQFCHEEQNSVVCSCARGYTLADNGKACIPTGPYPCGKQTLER

Molecule	SI (FXa [1]) [moles ZPI/mole FXa]	ka,app × SI (FXa [1])	ka,app × SI relative to WT (FXa [1])	ka,app (FXa [1])	SI (FXa [2]) [moles ZPI/mole FXa]	ka,app × SI (FXa [2])	ka,app × SI relative to WT (FXa [2])	ka,app (FXa [2])	PZ enhancement (FXa [2])	SI (FXa [3]) [moles ZPI/mole FXa]	ka,app × SI (FXa [3])	ka,app × SI relative to WT (FXa [3])	ka,app (FXa [3])	H50 rate enhancement (FXa [3]) [fold]
K253A/K260A/R263A/R305A/K308A/R310A: ZPI helix H site sextuple mutant (protein, UniProt Q9UK55 22-444, looked up, variant K253A K260A R263A R305A K308A R310A) Protein Z-dependent protease …: LAPSPQSPETPAPQNQTSRVVQAPKEEEEDEQEASEEKASEEEKAWLMASRQQLAKETSNFGFSLLRKISMRHDGNMVFSPFGMSLAMTGLMLGATGPTETQIKRGLHLQALKPTKPGLLPSLFKGLRETLSRNLELGLTQGSFAFIHKDFDVKETFFNLSKRYFDTECVPMNFRNASQAKRLMNHYINKETRGKIPKLFDEINPETKLILVDYILFKGKWLTPFDPVFTEVDTFHLDKYKTIKVPMMYGAGAFASTFDANFACHVLKLPYQGNATMLVVLMEKMGDHLALEDYLTTDLVETWLANMATANMEVFFPKFKLDQKYEMHELLRQMGIRRIFSPFADLSELSATGRNLQVSRVLQRTVIEVDERGTEAVAGILSEITAYSMPPVIKVDRPFHFMIYEETSGMLLFLGRVVNPTLL	3.2 ± 0.1	2.9 ± 0.2 × 10^3 M^−1 s^−1	(0.18)	9.2 ± 0.6 × 10^2 M^−1 s^−1	7.4 ± 0.3	2.5 ± 0.2 × 10^7 M^−1 s^−1	(0.57)	3.4 ± 0.1 × 10^6 M^−1 s^−1	8620	4.0 ± 0.2	2.6 ± 0.3 × 10^4 M^−1 s^−1	(0.02)	6.4 ± 0.5 × 10^3 M^−1 s^−1	–
K104A/R105A/K113A/K116A/K125A/R128A: ZPI mutant of the six basic residues in the helix C/D site (protein, UniProt Q9UK55 22-444, looked up, variant K104A R105A K113A K116A K125A R128A) Protein Z-dependent protease …: LAPSPQSPETPAPQNQTSRVVQAPKEEEEDEQEASEEKASEEEKAWLMASRQQLAKETSNFGFSLLRKISMRHDGNMVFSPFGMSLAMTGLMLGATGPTETQIAAGLHLQALAPTAPGLLPSLFAGLAETLSRNLELGLTQGSFAFIHKDFDVKETFFNLSKRYFDTECVPMNFRNASQAKRLMNHYINKETRGKIPKLFDEINPETKLILVDYILFKGKWLTPFDPVFTEVDTFHLDKYKTIKVPMMYGAGKFASTFDKNFRCHVLKLPYQGNATMLVVLMEKMGDHLALEDYLTTDLVETWLRNMKTRNMEVFFPKFKLDQKYEMHELLRQMGIRRIFSPFADLSELSATGRNLQVSRVLQRTVIEVDERGTEAVAGILSEITAYSMPPVIKVDRPFHFMIYEETSGMLLFLGRVVNPTLL	3.4 ± 0.4	9.4 ± 1.6 × 10^3 M^−1 s^−1	(0.59)	2.8 ± 0.1 × 10^3 M^−1 s^−1	7.7 ± 0.1	8.5 ± 0.9 × 10^6 M^−1 s^−1	(0.19)	1.1 ± 0.1 × 10^6 M^−1 s^−1	904	7.8 ± 2.0	6.6 ± 2.7 × 10^4 M^−1 s^−1	(0.06)	8.5 ± 1.3 × 10^3 M^−1 s^−1	7.0
D298K/E301R/T302K/T309K: ZPI mutant with the helix H heparin-binding site of PCI grafted onto homologous ZPI residues (protein, UniProt Q9UK55 22-444, looked up, variant D298K E301R T302K T309K) Protein Z-dependent protease …: LAPSPQSPETPAPQNQTSRVVQAPKEEEEDEQEASEEKASEEEKAWLMASRQQLAKETSNFGFSLLRKISMRHDGNMVFSPFGMSLAMTGLMLGATGPTETQIKRGLHLQALKPTKPGLLPSLFKGLRETLSRNLELGLTQGSFAFIHKDFDVKETFFNLSKRYFDTECVPMNFRNASQAKRLMNHYINKETRGKIPKLFDEINPETKLILVDYILFKGKWLTPFDPVFTEVDTFHLDKYKTIKVPMMYGAGKFASTFDKNFRCHVLKLPYQGNATMLVVLMEKMGDHLALEDYLTTKLVRKWLRNMKKRNMEVFFPKFKLDQKYEMHELLRQMGIRRIFSPFADLSELSATGRNLQVSRVLQRTVIEVDERGTEAVAGILSEITAYSMPPVIKVDRPFHFMIYEETSGMLLFLGRVVNPTLL	3.6 ± 0.3	2.6 ± 0.2 × 10^4 M^−1 s^−1	(1.6)	7.3 ± 0.1 × 10^3 M^−1 s^−1	2.2 ± 0.1	1.8 ± 0.3 × 10^7 M^−1 s^−1	(0.41)	8.4 ± 1.2 × 10^6 M^−1 s^−1	692	4.6 ± 0.1	3.9 ± 0.2 × 10^6 M^−1 s^−1	(3.2)	8.3 ± 0.4 × 10^5 M^−1 s^−1	150
K253A: ZPI helix H site mutant (protein, UniProt Q9UK55 22-444, looked up, variant K253A) Protein Z-dependent protease …: LAPSPQSPETPAPQNQTSRVVQAPKEEEEDEQEASEEKASEEEKAWLMASRQQLAKETSNFGFSLLRKISMRHDGNMVFSPFGMSLAMTGLMLGATGPTETQIKRGLHLQALKPTKPGLLPSLFKGLRETLSRNLELGLTQGSFAFIHKDFDVKETFFNLSKRYFDTECVPMNFRNASQAKRLMNHYINKETRGKIPKLFDEINPETKLILVDYILFKGKWLTPFDPVFTEVDTFHLDKYKTIKVPMMYGAGAFASTFDKNFRCHVLKLPYQGNATMLVVLMEKMGDHLALEDYLTTDLVETWLRNMKTRNMEVFFPKFKLDQKYEMHELLRQMGIRRIFSPFADLSELSATGRNLQVSRVLQRTVIEVDERGTEAVAGILSEITAYSMPPVIKVDRPFHFMIYEETSGMLLFLGRVVNPTLL	2.1 ± 0.1	8.5 ± 1.2 × 10^3 M^−1 s^−1	(0.53)	4.1 ± 0.4 × 10^3 M^−1 s^−1	2.4 ± 0.1	7.2 ± 0.1 x 10^6 M^−1 s^−1	(0.16)	3.0 ± 0.2 × 10^6 M^−1 s^−1	847	1.5 ± 0.1	4.8 ± 0.7 × 10^5 M^−1 s^−1	(0.40)	3.2 ± 0.2 × 10^5 M^−1 s^−1	56

— article PMC9190012, “Heparin activation of protein Z-dependent protease inhibitor (ZPI) allosterically blocks protein Z activation through an extended heparin-binding site” (The Journal of Biological Chemistry, 2022)
